B1: PEX5 peptide 238-253 (Peroxisomal targeting signal 1 receptor), 16-mer library wild type / PEX14 Pex14 (PEX14 PEX14, residues 16-84) (parent)
chain 1: AQAEQWAAEFIQQQGT
chain 2: TPGSENVLPREPLIATAVKFLQNSRVRQSPLATRRAFLKKKGLTDEEIDMAFQQSGTAADEPSSLGPAT
B2: TPTE2 peptide 94-109 (Phosphatidylinositol 3,4,5-trisphosphate 3-phosphatase TPTE2), 16-mer library wild type / TLN1 PTB (TLN1 Phosphotyrosine-binding (PTB) domain, residues 309-401) (parent)
chain 1: DLIFTDSKLYIPLEYR
chain 2: GVSFFLVKEKMKGKNKLVPRLLGITKECVMRVDEKTKEVIQEWNLTNIKRWAASPKSFTLDFGDYQDGYYSVQTTEGEQIAQLIAGYIDIILK

Variants of: B1
Experiment: proteomic peptide phage display deep mutational scan (ProP-PD DMS): M13 P8 16-mer library selected against immobilised GST-tagged bait for four days (rounds), NGS of the eluted pools per day and pseudo-replica
Details: with PEX14 Pex14 (PEX14 PEX14, residues 16-84); bait immobilised on MaxiSorp plates (10 µg), library pre-cleared on GST, 2 h binding at 4 °C, five washes; one round per day, days 1-4; value from days 2 and 3; keep out of graded; scale: average fractional NGS count over selection days 2 and 3
chain 1 AQAEQWAAEFIPQQGT [chain 1 Q12P] gave a screen value of 0.000699.
Work on chain 1 AQAEQWAAEFIRQQGT [chain 1 Q12R] yielded a screen value of 0.
chain 1 AQAEQWAAEFISQQGT [chain 1 Q12S] showed a screen value of 0.00055.
chain 1 AQAEQWAAEFITQQGT [chain 1 Q12T] was tested, and the screen value was 0.000592.
chain 1 AQAEQWAAEFIVQQGT [chain 1 Q12V] gave a screen value of 0.000188.
chain 1 AQAEQWAAEFIWQQGT [chain 1 Q12W] gave a screen value of 0.000355.
chain 1 AQAEQWAAEFIQAQGT [chain 1 Q13A] showed a screen value of 0.00172.
In the case of chain 1 AQAEQWAAEFIQDQGT [chain 1 Q13D], the screen value is reported as 0.000183.
With chain 1 AQAEQWAAEFIQFQGT [chain 1 Q13F] the screen value was 0.000134.
With chain 1 AQAEQWAAEFIQGQGT [chain 1 Q13G] the screen value was 0.000627.
chain 1 AQAEQWAAEFIQHQGT [chain 1 Q13H] was tested, and the screen value was 0.
Variant chain 1 AQAEQWAAEFIQKQGT [chain 1 Q13K] has a screen value of 0.
chain 1 AQAEQWAAEFIQLQGT [chain 1 Q13L] was tested, and the screen value was 0.00111.
With chain 1 AQAEQWAAEFIQMQGT [chain 1 Q13M] the screen value was 0.000454.
With chain 1 AQAEQWAAEFIQRQGT [chain 1 Q13R] the screen value was 0.00284.
For chain 1 AQAEQWAAEFIQSQGT [chain 1 Q13S], the screen value was 0.
chain 1 AQAEQWAAEFIQTQGT [chain 1 Q13T] was tested, and the screen value was 0.000335.
chain 1 AQAEQWAAEFIQYQGT [chain 1 Q13Y] gave a screen value of 0.000125.
Work on chain 1 AQAEQWAAEFIQQDGT [chain 1 Q14D] yielded a screen value of 0.000186.
In the case of chain 1 AQAEQWAAEFIQQEGT [chain 1 Q14E], the screen value is reported as 0.
chain 1 AQAEQWAAEFIQQFGT [chain 1 Q14F] showed a screen value of 0.000215.
For chain 1 AQAEQWAAEFIQQGGT [chain 1 Q14G], the screen value was 0.00214.
chain 1 AQAEQWAAEFIQQHGT [chain 1 Q14H] was tested, and the screen value was 0.000732.
With chain 1 AQAEQWAAEFIQQIGT [chain 1 Q14I] the screen value was 0.00105.
With chain 1 AQAEQWAAEFIQQKGT [chain 1 Q14K] the screen value was 0.
Variant chain 1 AQAEQWAAEFIQQRGT [chain 1 Q14R] has a screen value of 0.0013.
With chain 1 AQAEQWAAEFIQQSGT [chain 1 Q14S] the screen value was 0.00134.
chain 1 AQAEQWAAEFIQQTGT [chain 1 Q14T] showed a screen value of 0.
Variant chain 1 AQAEQWAAEFIQQVGT [chain 1 Q14V] has a screen value of 0.000266.
Variant chain 1 AQAEQWAAEFIQQWGT [chain 1 Q14W] has a screen value of 0.000797.
For chain 1 AQAEQWAAEFIQQQGA [chain 1 T16A], the screen value was 0.000218.
Variant chain 1 AQAEQWAAEFIQQQGD [chain 1 T16D] has a screen value of 0.000181.
Variant chain 1 AQAEQWAAEFIQQQGE [chain 1 T16E] has a screen value of 0.
Variant chain 1 AQAEQWAAEFIQQQGG [chain 1 T16G] has a screen value of 0.
With chain 1 AQAEQWAAEFIQQQGH [chain 1 T16H] the screen value was 0.00132.
Work on chain 1 AQAEQWAAEFIQQQGL [chain 1 T16L] yielded a screen value of 0.000704.
chain 1 AQAEQWAAEFIQQQGM [chain 1 T16M] gave a screen value of 0.000253.
chain 1 AQAEQWAAEFIQQQGN [chain 1 T16N] showed a screen value of 0.000881.
Work on chain 1 AQAEQWAAEFIQQQGP [chain 1 T16P] yielded a screen value of 0.000382.
chain 1 AQAEQWAAEFIQQQGQ [chain 1 T16Q] was tested, and the screen value was 0.00068.
Variant chain 1 AQAEQWAAEFIQQQGS [chain 1 T16S] has a screen value of 0.000223.
Work on chain 1 AQAEQWAAEFIQQQGV [chain 1 T16V] yielded a screen value of 0.00206.
In the case of chain 1 AQAEQWAAEFIQQQGW [chain 1 T16W], the screen value is reported as 0.00013.
Variant chain 1 AQAEQFAAEFIQQQGT [chain 1 W6F] has a screen value of 0.000898.
chain 1 AQAEQLAAEFIQQQGT [chain 1 W6L] was tested, and the screen value was 0.

Variants of: B2
Experiment: as above
Details: with TLN1 PTB (TLN1 Phosphotyrosine-binding (PTB) domain, residues 309-401); bait immobilised on MaxiSorp plates (10 µg), library pre-cleared on GST, 2 h binding at 4 °C, five washes; one round per day, days 1-4; value from days 2 and 3; keep out of graded; scale: average fractional NGS count over selection days 2 and 3
chain 1 DLIFTDSKLYIPLESR [chain 1 Y15S] was tested, and the screen value was 0.00054.
chain 1 DLIFTDSKLYIALEYR [chain 1 P12A] showed a screen value of 0.
For chain 1 DLIFTDSKLYIPLWYR [chain 1 E14W], the screen value was 2.8e-05.
chain 1 DLIFTDSKNYIPLEYR [chain 1 L9N] was tested, and the screen value was 0.
With chain 1 DHIFTDSKLYIPLEYR [chain 1 L2H] the screen value was 0.000178.
Variant chain 1 DLIFHDSKLYIPLEYR [chain 1 T5H] has a screen value of 5.61e-05.
chain 1 DLIFTDSKAYIPLEYR [chain 1 L9A] gave a screen value of 0.00044.
In the case of chain 1 DLIFTDSKLYIPLLYR [chain 1 E14L], the screen value is reported as 6.19e-05.
Work on chain 1 DLIFLDSKLYIPLEYR [chain 1 T5L] yielded a screen value of 0.
In the case of chain 1 TLIFTDSKLYIPLEYR [chain 1 D1T], the screen value is reported as 0.000148.
chain 1 DLIFTDSKLYIPLEER [chain 1 Y15E] showed a screen value of 0.00244.
chain 1 ELIFTDSKLYIPLEYR [chain 1 D1E] showed a screen value of 0.000184.
chain 1 DLIFTDSKGYIPLEYR [chain 1 L9G] gave a screen value of 0.000626.
chain 1 DLIFTDDKLYIPLEYR [chain 1 S7D] gave a screen value of 0.
In the case of chain 1 DLMFTDSKLYIPLEYR [chain 1 I3M], the screen value is reported as 0.000353.
Variant chain 1 DLIFTDSKLYIPLEVR [chain 1 Y15V] has a screen value of 0.000703.
chain 1 DLFFTDSKLYIPLEYR [chain 1 I3F] was tested, and the screen value was 0.0002.
In the case of chain 1 DLIFTDTKLYIPLEYR [chain 1 S7T], the screen value is reported as 6.44e-05.
In the case of chain 1 DLIFTDSKLYIPLFYR [chain 1 E14F], the screen value is reported as 9.64e-05.
For chain 1 DLGFTDSKLYIPLEYR [chain 1 I3G], the screen value was 0.000109.
For chain 1 DTIFTDSKLYIPLEYR [chain 1 L2T], the screen value was 0.000185.
Work on chain 1 DLIFTDSKLYKPLEYR [chain 1 I11K] yielded a screen value of 3.45e-05.
chain 1 DLIFTDSKLRIPLEYR [chain 1 Y10R] was tested, and the screen value was 0.
chain 1 DLRFTDSKLYIPLEYR [chain 1 I3R] showed a screen value of 0.00161.
chain 1 DVIFTDSKLYIPLEYR [chain 1 L2V] was tested, and the screen value was 0.00592.
chain 1 DMIFTDSKLYIPLEYR [chain 1 L2M] was tested, and the screen value was 0.00204.
chain 1 GLIFTDSKLYIPLEYR [chain 1 D1G] gave a screen value of 0.00013.
chain 1 DGIFTDSKLYIPLEYR [chain 1 L2G] showed a screen value of 0.000486.
chain 1 DLIFTDSKLYIPIEYR [chain 1 L13I] was tested, and the screen value was 0.00223.
chain 1 DLIFTDSQLYIPLEYR [chain 1 K8Q] showed a screen value of 0.00121.
Work on chain 1 DQIFTDSKLYIPLEYR [chain 1 L2Q] yielded a screen value of 0.
Variant chain 1 DLTFTDSKLYIPLEYR [chain 1 I3T] has a screen value of 0.00253.
chain 1 DLIFTDSKLYIPVEYR [chain 1 L13V] showed a screen value of 4.1e-05.
With chain 1 DLIFTASKLYIPLEYR [chain 1 D6A] the screen value was 3.11e-05.
Work on chain 1 DLIFTDSALYIPLEYR [chain 1 K8A] yielded a screen value of 0.0039.
chain 1 DLIFTDSLLYIPLEYR [chain 1 K8L] was tested, and the screen value was 0.000141.
chain 1 DLVFTDSKLYIPLEYR [chain 1 I3V] was tested, and the screen value was 0.00384.
Variant chain 1 DLNFTDSKLYIPLEYR [chain 1 I3N] has a screen value of 0.00121.
Work on chain 1 SLIFTDSKLYIPLEYR [chain 1 D1S] yielded a screen value of 0.000249.
For chain 1 DLIFTDSNLYIPLEYR [chain 1 K8N], the screen value was 0.000705.
For chain 1 DLIFTNSKLYIPLEYR [chain 1 D6N], the screen value was 6.84e-05.
For chain 1 DLIFTTSKLYIPLEYR [chain 1 D6T], the screen value was 0.000144.
chain 1 DLIFTDSKIYIPLEYR [chain 1 L9I] was tested, and the screen value was 0.000157.
For chain 1 KLIFTDSKLYIPLEYR [chain 1 D1K], the screen value was 0.
chain 1 DLIFTDSKLYIPLSYR [chain 1 E14S] was tested, and the screen value was 6.5e-05.
For chain 1 DLIFTDSKLYIPQEYR [chain 1 L13Q], the screen value was 0.000253.
chain 1 DDIFTDSKLYIPLEYR [chain 1 L2D] showed a screen value of 9.22e-05.
chain 1 DLIFTDSKLYYPLEYR [chain 1 I11Y] was tested, and the screen value was 5.14e-05.
With chain 1 DLIFTDSKLYIPLEQR [chain 1 Y15Q] the screen value was 0.00142.
